Biological target: HA-Ubiquitin-Vinyl Sulfone (UniProt P0CG48 1-76, vinyl sulfone (active site probe of cysteine DUBs))
Experiment: active-site-directed labelling with HA-UbVS

B1: UCHL5 (enzyme)
chain: MTGNAGEWCLMESDPGVFTELIKGFGCRGAQVEEIWSLEPENFEKLKPVHGLIFLFKWQPGEEPAGSVVQDSRLDTIFFAKQVINNACATQAIVSVLLNCTHQDVHLGETLSEFKEFSQSFDAAMKGLALSNSDVIRQVHNSFARQQMFEFDTKTSAKEEDAFHFVSYVPVNGRLYELDGLREGPIDLGACNQDDWISAVRPVIEKRIQKYSEGEIRFNLMAIVSDRKMIYEQKIAELQRQLAEEEPMDTDQGNSMLSAIQSEVAKNQMLIEEEVQKLKRYKIENIRRKHNYLPFIMELLKTLAEHQQLIPLVEKAKEKQNAKKAQETK
- binding result: binds

Reference: paper PMC5287571 (Biochemical pharmacology, 2016)
